Test results published in paper PMC11234212.

What was measured:
[1] = RALY ubiquitination western blot
[2] = western blot of RALY protein
[3] = half-life analysis, western blot, Hep3B and Huh7; details: glycan gained; control: DMSO
[4] = glycan lost, control: RALYKO-WT
[5] = glycan gained, control: untreated / control-transfected cells

B1: RALY: S176A (protein)
parent chain: MSLKLQASNVTNKNDPKSINSRVFIGNLNTALVKKSDVETIFSKYGRVAGCSVHKGYAFVQYSNERHARAAVLGENGRVLAGQTLDINMAGEPKPDRPKGLKRAASAIYSGYIFDYDYYRDDFYDRLFDYRGRLSPVPVPRAVPVKRPRVTVPLVRRVKTNVPVKLFARSTAVTTSSAKIKLKSSELQAIKTELTQIKSNIDALLSRLEQIAAEQKANPDGKKKGDGGGAGGGGGGGGSGGGGSGGGGGGGSSRPPAPQENTTSEAGLPQGEARTRDDGDEEGLLTHSEEELEHSQDTDADDGALQ
degradation_or_half_life (CHX chase, western blot; [4]): decreases | other: ubiquitination [1, 4]: increases

B2: RALY: TMG or PUG (protein)
parent chain: B1 parent chain
degradation_or_half_life (CHX chase, western blot; glycan gained, control: untreated RALYKO-WT): increases

B3: RALY: PUG (protein)
parent chain: B1 parent chain
expression_or_secretion [2, 5]: increases | degradation_or_half_life, half_life [3]: increases

B4: RALY: OE-OGT (protein)
parent chain: B1 parent chain
expression_or_secretion [2, 5]: increases

B5: RALY: siOGT (protein)
parent chain: B1 parent chain
expression_or_secretion ([2]; glycan lost, control: untreated / control-transfected cells): decreases

B6: RALY: TMG (protein)
parent chain: B1 parent chain
expression_or_secretion ([2]; glycan gained, control: TRIM27-overexpressing cells without TMG): increases | expression_or_secretion [2, 5]: increases | degradation_or_half_life, half_life [3]: increases, approximately 40 (Hep3B), 32 (Huh7) vs approximately 16 (Hep3B), 15 (Huh7) | other: ubiquitination ([1]; glycan gained, control: untreated): decreases
